Substrate in data set [1]: Cc1ccccc1OC[C@@H]1CO1
The data set is described as follows: initial hydrolysis rate by HPLC, non-linear regression. Conditions: pH 7.0 phosphate 100 mM, 20 °C, 5% methanol, 1.5-15 mM substrate. In kind it is biochemical, Phaseolus vulgaris. The text has this:
(§1) initial hydrolysis rate by HPLC, non-linear regression on PvEH3

Substrate in data set [2]: Cc1ccccc1OC[C@H]1CO1
Described as above. In kind it is biochemical, Phaseolus vulgaris. Particulars: pH 7.0 phosphate 100 mM, 20 °C, 5% methanol, 1.5-15 mM substrate.
Text: as §1

Positions count from the first letter of the chain named. Names may count otherwise.

B1: PvEH3 (Phaseolus vulgaris) (protein)
chain: MEGIQHKEVEVNGIKMHVAEKGEGPVVLFLHGFPELWYSWRHQILALSSRGYRAVAPDLRGYGDTEAPASMSSYSCFDIVGDLVALIDLLGVDQVFLVAHDWGAIIGWYLCMFRPDRVKAYVCLSVPLLHRNPEIRTVDAMRAMYGDDYYICRFQKPGEMEAQMAEVGTGYVLKNILTTRKPGPPIFPKGEYGTGFNPDMTNSLPSWLSQHDLAYYVSKFQKTGFTGPLNYYRNMNPNWELTAPWSGAKIKVPVKFITGDLDMVYTSLNMKEYIHGGGFKEDVPNLEEVIVQKGVAHFNNQEAAEEINTHIYDFINKF
notes: pET-28a(+), N-terminal 6xHis tag, E. coli BL21(DE3), Ni-NTA purified; catalytic Asp101, Tyr150, Tyr232
For the protein B1, the figures for the Km in data set [1] and in data set [2] were 6.14 ± 0.22 mM and 9.84 ± 0.28 mM, respectively. Also, in data set [2], the kcat came to 1.12 ± 0.05 s⁻¹.

B2: PvEH3 (Phaseolus vulgaris; E134K/T137P) (protein)
chain: B1 chain with E134K, T137P
notes: as for B1
In the case of B2, the Km in data set [1] is reported as 3.29 ± 0.15 mM. In addition, in data set [2], the Km is 5.40 ± 0.21 mM and the kcat amounted to 1.37 ± 0.06 s⁻¹.

These data come from article PMC6997370, “Significant improvement in catalytic activity and enantioselectivity of a Phaseolus vulgaris epoxide hydrolase, PvEH3, towards ortho-cresyl glycidyl ether based on the semi-rational design” (Scientific Reports, 2020).
